Laboratory results as given in patent publication US20100061991A1.

Target: human DCIR (dendritic cell immunoreceptor), full length, isotype 1 (human) (UniProt Q9UMR7)
Test: cell-based or functional assay

Chain of UniProt Q9UMR7 (Q9UMR7 whole entry): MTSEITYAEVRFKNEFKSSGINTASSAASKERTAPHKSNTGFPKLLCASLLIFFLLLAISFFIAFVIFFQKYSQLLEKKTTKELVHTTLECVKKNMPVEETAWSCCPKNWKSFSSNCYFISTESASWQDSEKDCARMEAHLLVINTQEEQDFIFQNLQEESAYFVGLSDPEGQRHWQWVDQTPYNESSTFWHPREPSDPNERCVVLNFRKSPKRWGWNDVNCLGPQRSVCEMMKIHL

Substance: HIV-1 NL4-3balenv virions (R5-tropic; NL4-3 with the env gene of HIV-1 Bal)
- reduction in virus transfer from IM-MDDC to CD4+ T cells after DCIR-specific siRNA, in absence of EFV: 30%
- reduction in virus transfer from IM-MDDC to CD4+ T cells after DCIR-specific siRNA, in cells treated with EFV: 40%
